# From US20140221623A1 (Ablynx, published 2014)
# T1: Human soluble IL6-R (human, UniProt P08887 20-358)
# T1 construct: Bought soluble receptor; biotinylated in some Alphascreen assays; also called sIL6-R; hIL-6R
# T1 sequence (looked up): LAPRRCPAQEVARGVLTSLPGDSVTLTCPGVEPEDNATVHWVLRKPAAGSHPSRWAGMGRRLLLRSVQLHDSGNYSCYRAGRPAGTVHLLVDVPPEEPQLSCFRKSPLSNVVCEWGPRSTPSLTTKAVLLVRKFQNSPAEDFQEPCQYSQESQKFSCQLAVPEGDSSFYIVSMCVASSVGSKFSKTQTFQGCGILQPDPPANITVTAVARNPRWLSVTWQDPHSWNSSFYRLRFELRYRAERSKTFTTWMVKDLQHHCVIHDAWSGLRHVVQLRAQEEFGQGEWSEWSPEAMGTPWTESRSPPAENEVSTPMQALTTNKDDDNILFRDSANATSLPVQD
# Tests used:
# Human soluble IL6-R [1] = biological target: T1, Human soluble IL6-R; assay: SPR (Biacore 3000), IL6-R on CM5 chip
# Human soluble IL6-R [2] = biological target: T1, Human soluble IL6-R; assay: SPR (Biacore), off-rate
Binder,Kd (Human soluble IL6-R [1]) [nM],koff (Human soluble IL6-R [1]) [s⁻¹],kon (Human soluble IL6-R [1]) [M⁻¹ s⁻¹],koff (Human soluble IL6-R [2]) [s⁻¹]
"IL6R71 (VHH, Humanized variant of IL6R04) VHH: EVQLVESGGGLVQPGGSLRLSCAASGFTFDDYDIGWFRQAPGKGREGVSGISSSDGNTYYADSVKGRFTISSDNAKNTVYLQMNSLRPEDTAVYYCAAEPPDSSWYLDGSPEFFKYWGQGTLVTVSS",0.22,0.000153,703000,
"IL6R72 (VHH, Humanized variant of IL6R04) VHH: EVQLVESGGGLVQPGGSLRLSCAASGFTFSDYDIGWFRQAPGKGREGVSGISSSDGNTYYADSVKGRFTISSDNAKNTVYLQMNSLRPEDTAVYYCAAEPPDSSWYLDGSPEFFKYWGQGTLVTVSS",0.33,0.00018,543000,
"IL6R75 (VHH, Humanized variant of IL6R04) VHH: EVQLVESGGGLVQPGGSLRLSCAASGFTFSDYDIGWFRQAPGKGREGVSGISSSDGNTYYADSVKGRFTISRDNAKNTLYLQMNSLRPEDTAVYYCAAEPPDSSWYLDGSPEFFKYWGQGTLVTVSS",< 0.1,< 0.0001,1e+06,
"IL6R73 (VHH, Humanized variant of IL6R04) VHH: EVQLVESGGGLVQPGGSLRLSCAASGFTFDDYDIGWFRQAPGKGREGVSGISSSDGNTYYADSVKGRFTISRDNAKNTVYLQMNSLRPEDTAVYYCAAEPPDSSWYLDGSPEFFKYWGQGTLVTVSS",0.33,0.000233,698000,
"IL6R74 (VHH, Humanized variant of IL6R04) VHH: EVQLVESGGGLVQPGGSLRLSCAASGFTFDDYDIGWFRQAPGKGREGVSGISSSDGNTYYADSVKGRFTISSDNAKNTLYLQMNSLRPEDTAVYYCAAEPPDSSWYLDGSPEFFKYWGQGTLVTVSS",0.16,0.000122,767000,
"IL6R81 (VHH, Humanized variant of IL6R13) VHH: EVQLVESGGGLVQPGGSLRLSCAASGFTFDDYGMSWVRQAPGRATEWVSAISWNGNNTYYTESMKGRFTISRDNAKNTVYLQMNSLRPEDTAVYYCVKGSTAIVGVPPTYPDEYDYWGQGTLVTVSS",0.4,0.000128,320000,
"IL6R82 (VHH, Humanized variant of IL6R13) VHH: EVQLVESGGGLVQPGGSLRLSCAASGFTFDDYGMSWVRQAPGKGLEWVSAISWNGNNTYYTESMKGRFTISRDNAKNTVYLQMNSLRPEDTAVYYCVKGSTAIVGVPPTYPDEYDYWGQGTLVTVSS",5.07,0.00314,619000,
"IL6R83 (VHH, Humanized variant of IL6R13) VHH: EVQLVESGGGLVQPGGSLRLSCAASGFTFDDYGMSWVRQAPGRATEWVSAISWNGNNTYYTESMKGRFTISRDNAKNTLYLQMNSLRPEDTAVYYCVKGSTAIVGVPPTYPDEYDYWGQGTLVTVSS",0.34,0.00012,350000,
"PMP 33 A2 (VHH, also called PMP33A2(t)) VHH: EVQLVESGGGLVQPGGSLRLSCAASGFSLDYYAIGWFRQAPGKEREGVSCMDSSGGTTSTYYSDSVKGRFTISRDDAKNTVYLQMNSLKPEDTAVYYCAADGHLNWGQRYVPCSQISWRGWNDYWGQGTQVTVSS",,,,0.0005
"PMP 28 A2 (VHH, also called PMP28A2(t)) VHH: EVQLVESGGGLVQPGGSLRLSCAASGFTFGSYDMSWVRQAPGKGPEWVSAINSGGGSTYYADSVKGRFTISRDNAKNTLYLQMNSLKPEDTAVYYCATDWRYSDYDLPLPPPGDYWGQGTQVTVSS",,,,0.00124
"IL6R61 (VHH, Humanized variant of IL6R03) VHH: EVQLVESGGGLVQPGGSLRLSCAASGSIFKVNAMGWYRQAPGKGRELVAGIISGGSTNYADSVKGRLTISRDNAKNTVYLQMNSLRPEDTAVYYCSFVTTNSDYDLGRDYWGQGTLVTVSS",2,0.0017,850000,
"IL6R64 (VHH, Humanized variant of IL6R03) VHH: EVQLVESGGGLVQPGGSLRLSCAASGSIFKVNAMGWYRQAPGKGRELVAGIISGGSTNYADSVKGRLTISRDNAKNTVYLQMNSLRPEDTAVYYCAFVTTNSDYDLGRDYWGQGTLVTVSS",,0.001,,
"IL6R62 (VHH, Humanized variant of IL6R03) VHH: EVQLVESGGGLVQPGGSLRLSCAASGSIFKVNAMGWYRQAPGKGRELVAGIISGGSTNYADSVKGRFTISRDNAKNTVYLQMNSLRPEDTAVYYCSFVTTNSDYDLGRDYWGQGTLVTVSS",2.22,0.00207,929000,
"IL6R65 (VHH, Humanized variant of IL6R03) VHH: EVQLVESGGGLVQPGGSLRLSCAASGSIFKVNAMGWYRQAPGKGRELVAGIISGGSTNYADSVKGRFTISRDNAKNTLYLQMNSLRPEDTAVYYCAFVTTNSDYDLGRDYWGQGTLVTVSS",4,0.00235,600000,
"IL6R63 (VHH, Humanized variant of IL6R03) VHH: EVQLVESGGGLVQPGGSLRLSCAASGSIFKVNAMGWYRQAPGKGRELVAGIISGGSTNYADSVKGRLTISRDNAKNTLYLQMNSLRPEDTAVYYCSFVTTNSDYDLGRDYWGQGTLVTVSS",3.69,0.00365,990000,

# Second part, the binder after the results:
Kd (Human soluble IL6-R [1]) [nM],koff (Human soluble IL6-R [1]) [s⁻¹],kon (Human soluble IL6-R [1]) [M⁻¹ s⁻¹],koff (Human soluble IL6-R [2]) [s⁻¹],Binder
,,,0.000111,"PMP 31 C5 (VHH, also called PMP31C5(t)) VHH: EVQLVESGGGLVQAGGSLRLSCAASGFTFDDYAIGWFRQAPGKEREGVSCISSSDGSTYYADSVKGRFTISSDNAKNTVYLLMNSLKPEDTAVYYCAAEPPDSMWSLDGSPEFFKFWGQGTQVTVSS"
,,,0.000281,"PMP 31 D2 (VHH, also called PMP31D2(t)) VHH: EVQLVESGGGLVQAGGSLRLSCAASGFTFDDYAIGWFRQAPGKEREGVSGISSSDGNTYYADSVKGRFTISSDNAKNTVYLQMNSLKPEDTAVYYCAAEPPDSNWYLDGSPEFFKFWGQGTQVTVSS"
,,,0.00058,"PMP 32 F10 (VHH, also called PMP32F10(t)) VHH: EVQLVESGGGLVQAGGSLRLSCAASGFTFDDYAIGWFRQAPGKEREGISCISSSDGSTYYADSVKGRFTISSDNAKNTVYLQMNSLKPEDTAVYYCAAEPPDSSWILDGSPEFFKFWGQGTQVTVSS"
,0.000105,,,"IL6R87 (VHH, Humanized variant of IL6R13) VHH: EVQLVESGGGLVQPGGSLRLSCAASGFTFDDYGMSWVRQAPGKATEWVSAISWNGNNTYYTESMKGRFTISRDNAKNTLYLQMNSLRPEDTAVYYCVKGSTAIVGVPPTYPDEYDYWGQGTLVTVSS"
,0.00206,,,"IL6R85 (VHH, Humanized variant of IL6R13) VHH: EVQLVESGGGLVQPGGSLRLSCAASGFTFDDYGMSWVRQAPGRGLEWVSAISWNGNNTYYTESMKGRFTISRDNAKNTLYLQMNSLRPEDTAVYYCVKGSTAIVGVPPTYPDEYDYWGQGTLVTVSS"
,0.0017,,,"IL6R86 (VHH, Humanized variant of IL6R13) VHH: EVQLVESGGGLVQPGGSLRLSCAASGFTFDDYGMSWVRQAPGRALEWVSAISWNGNNTYYTESMKGRFTISRDNAKNTLYLQMNSLRPEDTAVYYCVKGSTAIVGVPPTYPDEYDYWGQGTLVTVSS"
,0.00192,,,"IL6R90 (VHH, Humanized variant of IL6R13) VHH: EVQLVESGGGLVQPGGSLRLSCAASGFTFDDYGMSWVRQAPGKALEWVSAISWNGNNTYYTESMKGRFTISRDNAKNTLYLQMNSLRPEDTAVYYCVKGSTAIVGVPPTYPDEYDYWGQGTLVTVSS"
,,,0.00308,"PMP 33 C10 (VHH, also called PMP33C10(t)) VHH: EVQLVESGGGLVQPGGSLRLSCAASGFTFDDYGMSWVRQAPGKGLEWVSAISWNGGSTYYTESMKGRFTISRDNAKNTVYLQMNSLKPEDTAVYYCVKGSTAIVGVPPTYPDEYDYWGQGTQVTVSS"
,0.00019,,,"IL6R89 (VHH, Humanized variant of IL6R13) VHH: EVQLVESGGGLVQPGGSLRLSCAASGFTFDDYGMSWVRQAPGRGTEWVSAISWNGNNTYYTESMKGRFTISRDNAKNTLYLQMNSLRPEDTAVYYCVKGSTAIVGVPPTYPDEYDYWGQGTLVTVSS"
5.36,0.00409,762000,,"IL6R84 (VHH, Humanized variant of IL6R13) VHH: EVQLVESGGGLVQPGGSLRLSCAASGFTFDDYGMSWVRQAPGKGLEWVSAISWNGNNTYYTESMKGRFTISRDNAKNTLYLQMNSLRPEDTAVYYCVKGSTAIVGVPPTYPDEYDYWGQGTLVTVSS"
,,,0.00268,"PMP 30 A10 (VHH, also called PMP30A10(t)) VHH: EVQLVESGGGLVQPGGSLRLSCAASGFTFDDYGMSWVRQAPGKGLEWVSAISWNGGSTYYTESMKGRFTISRDNAKNTVYLQMNSLKPEDTAVYYCVKGSTAIVGVPPTYPDEYDYWGQGTQVTVSS"
,,,0.000142,"PMP 34 F8 (VHH, also called PMP34F8(t)) VHH: EVQLVESGGGLVQPGGSLRLSCAASGFSLDYYAIGWFRQAPGKEREGVSCMDSSDGTTNTYYSDSVKGRFTISRDDAKNTVYLQMNSLKPEDTASYYCAADGHLNWGQPYVPCSQISWRGWNDYWGQGTQVTVSS"
,,,0.00185,"PMP 28 D4 (VHH, also called PMP28D4(t)) VHH: EVQLVESGGGLVQPGGSLRLSCAASGFTFGSYDMSWVRQAPGKGPEWVSAINSGGGSTYYADSVKGRFTISRDNAKNTLYLQMNSLKPEDTAVYYCATDWRYSDYDLPLPPPGDYWGQGTQVTVSS"
,,,0.00131,"PMP 28 C7 (VHH, also called PMP28C7(t)) VHH: EVQLVESGGGLVQPGGSLRLSCAASGFTFGSYDMSWVRQAPGKGPEWVSAINSGGDNTYYADSVKGRFTISRDNAKNTLYLQMNSLKPEDTAVYYCATDWRYSDYDLPLPPPGDYWGQGTQVTVSS"
